The target of the assay is T1, OTULIN (OTU deubiquitinase with linear linkage specificity, FAM105B), His-tagged, biotin-labelled (human, UniProt Q96BN8 1-352, biotin (label; sites not stated)).
T1 construct: OTULIN (FAM105B), cDNA in pET28a; also called HIS-OTULIN; source: E. coli BL21 (DE3), purified (His-tag Purification Resin), labelled with biotin; not shown: His6, N-terminal, kept
As to the kind of experiment: peptide or protein array; HuProt human proteome microarray; 5 ug/5 ml biotin-labelled LUBAC or OTULIN in solution, 1 h at room temperature; Cy5-streptavidin, scanned at 635 nm; BSA as negative control; hits: Z-score >= 3 and I_(Mean_Ratio) >= 1.4. As to conditions: both partners purified.

B1: LOR (natural protein, human, UniProt P23490 1-312, looked up)
chain: MSYQKKQPTPQPPVDCVKTSGGGGGGGGSGGGGCGFFGGGGSGGGSSGSGCGYSGGGGYSGGGCGGGSSGGGGGGGIGGCGGGSGGSVKYSGGGGSSGGGSGCFSSGGGGSGCFSSGGGGSSGGGSGCFSSGGGGSSGGGSGCFSSGGGGFSGQAVQCQSYGGVSSGGSSGGGSGCFSSGGGGGSVCGYSGGGSGCGGGSSGGSGSGYVSSQQVTQTSCAPQPSYGGGSSGGGGSGGSGCFSSGGGGGSSGCGGGSSGIGSGCIISGGGSVCGGGSSGGGGGGSSVGGSGSGKGVPICHQTQQKQAPTWPSK
notes: LOR; protein on the human proteome microarray; source: spotted on the HuProt human proteome microarray
In the case of B1, the binding result is “binds”.

B2: NAT6 (natural protein, human, UniProt Q93015 1-286, looked up)
chain: MELILSTSPAELTLDPACQPKLPLDSTCQPEMTFNPGPTELTLDPEHQPEETPAPSLAELTLEPVHRRPELLDACADLINDQWPRSRTSRLHSLGQSSDAFPLCLMLLSPHPTLEAAPVVVGHARLSRVLNQPQSLLVETVVVARALRGRGFGRRLMEGLEVFARARGFRKLHLTTHDQVHFYTHLGYQLGEPVQGLVFTSRRLPATLLNAFPTAPSPRPPRKAPNLTAQAAPRGPKGPPLPPPPPLPECLTISPPVPSGPPSKSLLETQYQNVRGRPIFWMEKDI
notes: NAT6; protein on the human proteome microarray; source: spotted on the HuProt human proteome microarray
As to B2, the binding result is “binds”.

B3: KLHDC9 (natural protein, human, UniProt Q8NEP7 1-349, looked up)
chain: MAVAVPPGRAAGSGWAWRPVARDALLARAFHSCTELRGRFYLVGGLLAGGAREPSSDTVVFDPARGQAVRLGARGSPPRSHHDAAPVDGRWLCVVGGWDGSRRLATVTALDTERGVWEAWTGTPGDCPPAGLSSHTCTRISDRELQVAGREGGIHTQRRYGSIYTLRLDPSARTYCYKQEGCHTASRSGHCAALLQTPGPHPGHQLLLFGGCNLAEPEVAGHWSHGKIKEEPPVAPHLMEQLARLVSSGQGSQKGPHGLRHHSCSVVGPFAVLFGGETLTRARDTICNDLYIYDTRTSPPLWFHFPCADRGMKRMGHRTCLWNDQLYLVGGFGEDGRTASPQVCILDFI
notes: KLHDC9; protein on the human proteome microarray; source: spotted on the HuProt human proteome microarray
For B3, the binding result is given as “binds”.

B4: MAGEB1 (natural protein, human, UniProt P43366 1-347, looked up)
chain: MPRGQKSKLRAREKRRKAREETQGLKVAHATAAEKEECPSSSPVLGDTPTSSPAAGIPQKPQGAPPTTTAAAAVSCTESDEGAKCQGEENASFSQATTSTESSVKDPVAWEAGMLMHFILRKYKMREPIMKADMLKVVDEKYKDHFTEILNGASRRLELVFGLDLKEDNPSGHTYTLVSKLNLTNDGNLSNDWDFPRNGLLMPLLGVIFLKGNSATEEEIWKFMNVLGAYDGEEHLIYGEPRKFITQDLVQEKYLKYEQVPNSDPPRYQFLWGPRAYAETTKMKVLEFLAKMNGATPRDFPSHYEEALRDEEERAQVRSSVRARRRTTATTFRARSRAPFSRSSHPM
notes: MAGEB1; protein on the human proteome microarray; source: spotted on the HuProt human proteome microarray
Consider B4, for which the binding result is given as “binds”.

B5: MIF (natural protein, human, UniProt P14174 1-115, looked up)
chain: MPMFIVNTNVPRASVPDGFLSELTQQLAQATGKPPQYIAVHVVPDQLMAFGGSSEPCALCSLHSIGKIGGAQNRSYSKLLCGLLAERLRISPDRVYINYYDMNAANVGWNNSTFA
notes: MIF; protein on the human proteome microarray; source: spotted on the HuProt human proteome microarray
Regarding B5, the binding result is reported as “binds”.

B6: MPST (natural protein, human, UniProt P25325 1-297, looked up)
chain: MASPQLCRALVSAQWVAEALRAPRAGQPLQLLDASWYLPKLGRDARREFEERHIPGAAFFDIDQCSDRTSPYDHMLPGAEHFAEYAGRLGVGAATHVVIYDASDQGLYSAPRVWWMFRAFGHHAVSLLDGGLRHWLRQNLPLSSGKSQPAPAEFRAQLDPAFIKTYEDIKENLESRRFQVVDSRATGRFRGTEPEPRDGIEPGHIPGTVNIPFTDFLSQEGLEKSPEEIRHLFQEKKVDLSKPLVATCGSGVTACHVALGAYLCGKPDVPIYDGSWVEWYMRARPEDVISEGRGKTH
notes: MPST; protein on the human proteome microarray; source: spotted on the HuProt human proteome microarray
For the molecule B6, the binding result was “binds”.

B7: NABP1 (natural protein, human, UniProt Q96AH0 1-204, looked up)
chain: MNRVNDPLIFIRDIKPGLKNLNVVFIVLEIGRVTKTKDGHEVRSCKVADKTGSITISVWDEIGGLIQPGDIIRLTRGYASMWKGCLTLYTGRGGELQKIGEFCMVYSEVPNFSEPNPDYRGQQNKGAQSEQKNNSMNSNMGTGTFGPVGNGVHTGPESREHQFSHAGRSNGRGLINPQLQGTASNQTVMTTISNGRDPRRAFKR
notes: NABP1; protein on the human proteome microarray; source: spotted on the HuProt human proteome microarray
For B7, the binding result is reported as “binds”.

B8: MSI2 (natural protein)
chain: not shown
notes: MSI2; protein on the human proteome microarray; source: spotted on the HuProt human proteome microarray
As for B8, the binding result is “binds”.

These data come from article PMC8274477 (Frontiers in Cell and Developmental Biology, 2021).
